Experimental data published in article PMC9482650, “Quantitative fragmentomics allow affinity mapping of interactomes” (Nature Communications, 2022).

T1: NHERF3_4, Q5T2W1
T1 sequence (Q5T2W1 373-468, limits assumed, looked up): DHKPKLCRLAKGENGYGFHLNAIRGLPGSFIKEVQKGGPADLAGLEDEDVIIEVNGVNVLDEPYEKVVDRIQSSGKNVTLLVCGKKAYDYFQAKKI

T2: HTRA3, P83110
T2 sequence (P83110 354-453, limits assumed, looked up): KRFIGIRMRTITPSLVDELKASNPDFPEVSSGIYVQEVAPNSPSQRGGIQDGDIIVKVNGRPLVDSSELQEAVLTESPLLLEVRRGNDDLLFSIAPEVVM

T3: APBA2_2, Q99767
T3 sequence (Q99767 654-744, limits assumed, looked up): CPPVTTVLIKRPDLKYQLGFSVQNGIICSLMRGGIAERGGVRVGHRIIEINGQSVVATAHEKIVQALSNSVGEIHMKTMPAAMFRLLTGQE

T4: ARHGAP21, Q5T5U3
T4 sequence (Q5T5U3 45-169, limits assumed, looked up): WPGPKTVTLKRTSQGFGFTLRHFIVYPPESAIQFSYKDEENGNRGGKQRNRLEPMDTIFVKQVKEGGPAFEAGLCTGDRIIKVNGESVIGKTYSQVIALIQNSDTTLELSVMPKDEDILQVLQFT

T5: APBA2_1, Q99767
T5 sequence (Q99767 563-664, limits assumed, looked up): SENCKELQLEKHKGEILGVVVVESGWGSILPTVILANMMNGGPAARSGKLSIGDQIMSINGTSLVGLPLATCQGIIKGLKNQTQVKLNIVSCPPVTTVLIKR

T6: NHERF3_3, Q5T2W1
T6 sequence (Q5T2W1 238-333, limits assumed, looked up): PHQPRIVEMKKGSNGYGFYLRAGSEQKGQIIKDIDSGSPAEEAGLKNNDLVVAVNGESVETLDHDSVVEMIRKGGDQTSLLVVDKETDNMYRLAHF

T7: TJP3_3, O95049
T7 sequence (O95049 375-456, limits assumed, looked up): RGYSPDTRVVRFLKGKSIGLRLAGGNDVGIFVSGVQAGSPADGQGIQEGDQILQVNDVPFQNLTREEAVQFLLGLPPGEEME

T8: LRRC7, Q96NW7
T8 sequence (Q96NW7 1440-1537, limits assumed, looked up): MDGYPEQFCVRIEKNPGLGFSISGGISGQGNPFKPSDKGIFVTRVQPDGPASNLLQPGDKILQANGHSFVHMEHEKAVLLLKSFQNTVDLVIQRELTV

T9: FRMPD1, Q5SYB0
T9 sequence (Q5SYB0 52-145, limits assumed, looked up): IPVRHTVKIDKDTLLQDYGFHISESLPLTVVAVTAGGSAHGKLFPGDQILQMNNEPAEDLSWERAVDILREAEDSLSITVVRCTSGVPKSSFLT

T10: PDZD7_3, Q9H5P4
T10 sequence (Q9H5P4 857-944, limits assumed, looked up): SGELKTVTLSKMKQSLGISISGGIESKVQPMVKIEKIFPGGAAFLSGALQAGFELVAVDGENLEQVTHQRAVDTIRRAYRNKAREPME

T11: PDZD2_2, O15018
T11 sequence (O15018 329-429, limits assumed, looked up): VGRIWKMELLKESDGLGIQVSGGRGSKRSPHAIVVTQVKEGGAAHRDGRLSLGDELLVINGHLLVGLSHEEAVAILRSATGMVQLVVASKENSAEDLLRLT

T12: LNX2_3, Q8N448
T12 sequence (Q8N448 463-564, limits assumed, looked up): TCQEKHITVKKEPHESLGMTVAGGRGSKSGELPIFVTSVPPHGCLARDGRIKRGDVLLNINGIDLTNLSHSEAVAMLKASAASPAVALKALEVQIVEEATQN

T13: GRIP1_3, Q9Y3R0
T13 sequence (Q9Y3R0 247-346, limits assumed, looked up): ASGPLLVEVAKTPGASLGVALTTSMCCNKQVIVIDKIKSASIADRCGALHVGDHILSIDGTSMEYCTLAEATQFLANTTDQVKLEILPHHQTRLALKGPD


Columns and labels:
Assay in all cases: holdup assay
Set-up in all cases: key: below the threshold = too weak to quantify, mostly under pKd 3.1 to 4
Conditions in all cases: plain residues with an end cap or a label only (N-terminal biotin on a linker: ado-ado)
NHERF3_4, Q5T2W1 = target: T1, NHERF3_4, Q5T2W1
Inadl_3, Q8NI35 = target: Inadl_3, Q8NI35
Inadl_3, Q8NI35, sequence (Q8NI35 359-469): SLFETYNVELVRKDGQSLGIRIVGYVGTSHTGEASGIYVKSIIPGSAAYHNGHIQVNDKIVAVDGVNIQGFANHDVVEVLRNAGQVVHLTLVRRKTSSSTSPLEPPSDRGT

Inadl_9, Q8NI35 = target: Inadl_9, Q8NI35
Inadl_9, Q8NI35, sequence (Q8NI35 1530-1615): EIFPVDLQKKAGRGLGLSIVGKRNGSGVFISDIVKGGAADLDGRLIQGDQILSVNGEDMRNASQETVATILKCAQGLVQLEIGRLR

GRIP2_7, Q9C0E4 = target: GRIP2_7, Q9C0E4
GRIP2_7, Q9C0E4, sequence (Q9C0E4 934-1023): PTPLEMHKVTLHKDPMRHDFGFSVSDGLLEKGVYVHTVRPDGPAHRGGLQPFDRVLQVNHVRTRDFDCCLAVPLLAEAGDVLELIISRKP

Inadl_5, Q8NI35 = target: Inadl_5, Q8NI35
Inadl_5, Q8NI35, sequence (Q8NI35 673-780): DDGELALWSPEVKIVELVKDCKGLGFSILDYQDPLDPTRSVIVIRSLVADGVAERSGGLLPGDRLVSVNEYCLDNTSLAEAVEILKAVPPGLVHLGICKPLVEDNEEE

HTRA3, P83110 = target: T2, HTRA3, P83110
TJP1_3, Q07157 = target: TJP1_3, Q07157
TJP1_3, Q07157, sequence (Q07157 416-512): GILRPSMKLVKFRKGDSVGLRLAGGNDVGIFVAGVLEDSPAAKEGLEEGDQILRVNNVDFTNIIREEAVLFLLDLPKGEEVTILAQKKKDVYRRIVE

APBA2_2, Q99767 = target: T3, APBA2_2, Q99767
DLG2_3, Q15700 = target: DLG2_3, Q15700
ARHGAP21, Q5T5U3 = target: T4, ARHGAP21, Q5T5U3
APBA2_1, Q99767 = target: T5, APBA2_1, Q99767
NHERF3_3, Q5T2W1 = target: T6, NHERF3_3, Q5T2W1
IL16_3, Q14005 = target: IL16_3, Q14005
IL16_3, Q14005, sequence (Q14005 1107-1207): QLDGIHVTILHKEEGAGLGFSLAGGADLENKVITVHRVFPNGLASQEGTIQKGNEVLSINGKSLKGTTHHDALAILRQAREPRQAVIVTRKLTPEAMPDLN

FRMPD3, Q5JV73 = target: FRMPD3, Q5JV73
FRMPD3, Q5JV73, sequence (Q5JV73 12-100): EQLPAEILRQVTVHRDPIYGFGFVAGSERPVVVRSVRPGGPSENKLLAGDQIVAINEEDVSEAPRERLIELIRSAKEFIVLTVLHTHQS

TJP3_3, O95049 = target: T7, TJP3_3, O95049
GOPC, Q9HD26 = target: GOPC, Q9HD26
LNX1_1, Q8TBB1 = target: LNX1_1, Q8TBB1
LNX1_1, Q8TBB1, sequence (Q8TBB1 261-371): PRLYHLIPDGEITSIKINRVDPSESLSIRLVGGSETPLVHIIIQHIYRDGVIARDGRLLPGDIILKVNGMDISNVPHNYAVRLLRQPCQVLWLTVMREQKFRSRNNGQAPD

LRRC7, Q96NW7 = target: T8, LRRC7, Q96NW7
FRMPD1, Q5SYB0 = target: T9, FRMPD1, Q5SYB0
PDZD7_3, Q9H5P4 = target: T10, PDZD7_3, Q9H5P4
PDZD2_2, O15018 = target: T11, PDZD2_2, O15018
MAST1, Q9Y2H9 = target: MAST1, Q9Y2H9
MAST1, Q9Y2H9, sequence (Q9Y2H9 962-1065): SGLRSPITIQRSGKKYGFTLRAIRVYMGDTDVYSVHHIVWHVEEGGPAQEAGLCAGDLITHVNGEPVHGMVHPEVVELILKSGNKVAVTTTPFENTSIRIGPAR

LNX2_3, Q8N448 = target: T12, LNX2_3, Q8N448
GRIP1_3, Q9Y3R0 = target: T13, GRIP1_3, Q9Y3R0
DLG1_1, Q12959 = target: DLG1_1, Q12959

Binder | pKd (NHERF3_4, Q5T2W1) | pKd (Inadl_3, Q8NI35) | pKd (Inadl_9, Q8NI35) | pKd (GRIP2_7, Q9C0E4) | pKd (Inadl_5, Q8NI35) | pKd (HTRA3, P83110) | pKd (TJP1_3, Q07157) | pKd (APBA2_2, Q99767) | pKd (DLG2_3, Q15700) | pKd (ARHGAP21, Q5T5U3) | pKd (APBA2_1, Q99767) | pKd (NHERF3_3, Q5T2W1) | pKd (IL16_3, Q14005) | pKd (FRMPD3, Q5JV73) | pKd (TJP3_3, O95049) | pKd (GOPC, Q9HD26) | pKd (LNX1_1, Q8TBB1) | pKd (LRRC7, Q96NW7) | pKd (FRMPD1, Q5SYB0) | pKd (PDZD7_3, Q9H5P4) | also measured
SSSVNVSSNL [CXCR1, P25024] | below the threshold | below the threshold | below the threshold | below the threshold | below the threshold | below the threshold | below the threshold | below the threshold | below the threshold | 3.77 | below the threshold | below the threshold | below the threshold | below the threshold | below the threshold | below the threshold | 3.59 | below the threshold | below the threshold | below the threshold | pKd (PDZD2_2, O15018): 3.69; pKd (MAST1, Q9Y2H9): 4.45; pKd (LNX2_3, Q8N448): below the threshold; pKd (GRIP1_3, Q9Y3R0): below the threshold; pKd (DLG1_1, Q12959): below the threshold
KKTPVSRSHL [SLC22A3, O75751] | below the threshold | below the threshold | below the threshold | below the threshold | below the threshold | below the threshold | below the threshold | below the threshold | below the threshold | 3.97 | below the threshold | below the threshold | below the threshold | below the threshold | below the threshold | 3.81 | below the threshold | below the threshold | below the threshold | 3.91 | pKd (PDZD2_2, O15018): below the threshold; pKd (MAST1, Q9Y2H9): below the threshold; pKd (LNX2_3, Q8N448): below the threshold; pKd (GRIP1_3, Q9Y3R0): below the threshold; pKd (DLG1_1, Q12959): below the threshold
LPPPESESKV [KCNJ9, Q92806] | below the threshold | below the threshold | below the threshold | below the threshold | below the threshold | below the threshold | below the threshold | below the threshold | 3.7 | below the threshold | below the threshold | below the threshold | below the threshold | below the threshold | below the threshold | below the threshold | below the threshold | below the threshold | below the threshold | below the threshold | pKd (PDZD2_2, O15018): 4.81; pKd (MAST1, Q9Y2H9): 4.29; pKd (LNX2_3, Q8N448): below the threshold; pKd (GRIP1_3, Q9Y3R0): below the threshold; pKd (DLG1_1, Q12959): below the threshold

Second part, led by results:

pKd (NHERF3_4, Q5T2W1) | pKd (Inadl_3, Q8NI35) | pKd (Inadl_9, Q8NI35) | pKd (GRIP2_7, Q9C0E4) | pKd (Inadl_5, Q8NI35) | pKd (HTRA3, P83110) | pKd (TJP1_3, Q07157) | pKd (APBA2_2, Q99767) | pKd (DLG2_3, Q15700) | pKd (ARHGAP21, Q5T5U3) | pKd (APBA2_1, Q99767) | pKd (NHERF3_3, Q5T2W1) | pKd (IL16_3, Q14005) | pKd (FRMPD3, Q5JV73) | pKd (TJP3_3, O95049) | pKd (GOPC, Q9HD26) | pKd (LNX1_1, Q8TBB1) | pKd (LRRC7, Q96NW7) | pKd (FRMPD1, Q5SYB0) | pKd (PDZD7_3, Q9H5P4) | Binder | also measured
4.57 | below the threshold | below the threshold | below the threshold | below the threshold | below the threshold | below the threshold | below the threshold | 3.7 | 3.94 | below the threshold | below the threshold | below the threshold | 3.5 | below the threshold | below the threshold | below the threshold | below the threshold | below the threshold | below the threshold | NNMAFETTHF [SLC5A12, Q1EHB4] | pKd (PDZD2_2, O15018): below the threshold; pKd (MAST1, Q9Y2H9): 4.77; pKd (LNX2_3, Q8N448): below the threshold; pKd (GRIP1_3, Q9Y3R0): below the threshold; pKd (DLG1_1, Q12959): below the threshold
4.64 | 4.7 | below the threshold | below the threshold | below the threshold | below the threshold | below the threshold | below the threshold | below the threshold | 4.11 | below the threshold | below the threshold | below the threshold | below the threshold | below the threshold | 3.85 | 3.72 | below the threshold | below the threshold | 4.45 | LLQEEWETVM [PTH1R, Q03431] | pKd (PDZD2_2, O15018): below the threshold; pKd (MAST1, Q9Y2H9): 5.01; pKd (LNX2_3, Q8N448): below the threshold; pKd (GRIP1_3, Q9Y3R0): below the threshold; pKd (DLG1_1, Q12959): below the threshold
